± gives the half width of the 95% confidence interval.
Assay: folding stability dG unfold (combined trypsin and chymotrypsin); higher = more stable
In short: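 Digests were run with trypsin and chymotrypsin at 11 concentrations in threefold dilutions, plus a no-protease condition, on designed mini-proteins in a PA-tagged cDNA display construct. The mini-proteins were under 80 residues, had no cysteine, and were kept only when AlphaFold2 dimer inter-PAE was above 15. After sequencing, Bayesian fitting of the counts gave K50, from which unfolding free energy was derived against a sequence-predicted unfolded-state K50 and a shared folded-state K50, per protease or combined.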

Row | Sequence | folding stability dG unfold
1 | SAGGSAGGSAGGEIPIKIRPYDPKDGEPKDEHPIPFDTPNGNSLDEIAKQLPPDHFEVDISAGGSAGGSAGG [r17_339_TrROS] | 0.875 ± 0.059 kcal/mol
2 | SAGGSLTAEWDTSTGTVRLTFPDGSVVELPFPTSGAVVRATVDGDKVTIEVLDKDNPKVVARFTFDLGSAGG [r13_938_TrMRF] | 4.37 ± 0.19 kcal/mol
3 | SMKEGIEAAIDELKEALEKGEGEVRVVLRFEGFVLEITIKPKGYKIEDIEIEPLPDDIPFIREREEVPPESA [r9_308_TrMRF] | 1.52 ± 0.24 kcal/mol
4 | SAGGDPPNIEVVPYRVKFGGKPIPIQVFVMPNGQTIVRIKFPNGKKGWMPADDLDELLKNPFEIERVSAGGS [r16_105_TrROS] | 1.11 ± 0.14 kcal/mol
5 | SAGGSAGGSAGKYEVTKIEVVKNEDGSEYLRVTIKVDGKEITITIPLEDAENIKIEIKPPSAGGSAGGSAGG [r17_64_TrROS_Hall] | 3.38 ± 0.12 kcal/mol
6 | SAGGSAGGSAGAYRVEVNVELTPEAREAFLKNPELPADAEIPVVVSGRVEPVPLGPEGVLSAGGSAGGSAGG [r17_194_TrMRF] | -0.143 ± 0.12 kcal/mol
7 | SPKITIDVETNKNGRGYIRFKFNGREREIRIPSNMTPEGAKEKARDIANTLQKRYQENGRPLKIEEIEIYSA [r9_751_TrROS] | 1.36 ± 0.17 kcal/mol
8 | SAGGSAGGSAGGMLSGQVIEVTIPPERRLVRVEKLPSGDYLITIYRPDEPKPLETLRIRASAGGSAGGSAGG [r7_620_JUSTAS] | 1.78 ± 0.11 kcal/mol
9 | SAGGSASDVVPIDKKITITLPGGEKYEVTEMTVLPDGTVKMKIIKKSPNGNPTEEEITLSPEELVDLSAGGS [r16_498_JUSTAS] | 2.47 ± 0.058 kcal/mol
10 | SAGGSAGGSNWYQFTIPFPIPPDEPVEIKLPDGWEIHEIPPNSGRITIYMPMNNMDAIKEAIGSAGGSAGGS [r12_476_TrROS] | 1.19 ± 0.056 kcal/mol
11 | SMVELKITVKTPEELKKLEEAFKELGVEEVTIERKEDGTVTITVTFKESEEELEERVREALEELGFEVEPSA [r9_1003_TrROS_Hall] | 3.18 ± 0.22 kcal/mol
12 | SAGMKITISYDEAKGIATVTLYEERPVETPNGPVTLRRKVATVTIPYTSLEEAKKQAEEAAKALLEKLSSAG [r5_956_JUSTAS] | 5.06 ± 0.084 kcal/mol
13 | SAGGSDKLYIRNPDHTIEIDEVKEPPDGEKYVRIRHEPPDGKEKEHEFPPDELADKFGLPPDNIEISAGGSA [r2_262_TrROS] | -0.101 ± 0.56 kcal/mol
14 | SAGGFEFKAVKLKKNEEKEGELGGAKVRYVSDNKGPVYQVVEFGPEYRALAKVEGDKVELVAVEEGNPSAGG [r13_92_TrMRF] | -0.21 ± 0.16 kcal/mol
15 | SAGGMVTITTEKMTEEEAEELKKKLPPNTVLLPNPANDTIVPILVPPDPAVLQAVKDALEKELAEAKSAGGS [r16_311_JUSTAS] | 1.18 ± 0.15 kcal/mol
16 | SAGGSASLESEDVEEVSTSTSVVPLPDGGTATVTTTTYRHKEPGTLVTRTTTTFPGGATTTTVTLLSAGGSA [r15_188_JUSTAS] | 1.91 ± 0.025 kcal/mol

Row | Sequence | folding stability dG unfold
17 | SAGGTTTTLTFETEEEAREFAEELREKHPDVVLEVEIRRETRTVTVPGVGEVREVDRVVVTVTLTPASAGGS [r16_828_JUSTAS] | 2.89 ± 0.07 kcal/mol
18 | SAGGSYLDEVREKILKEYPLKPGEPKEIEITVPLPSGRTVKIKIPVTVDPKTGKVEAKFEVLEETKESAGGS [r16_634_JUSTAS] | 0.934 ± 0.074 kcal/mol
19 | SAGGSANLPPGQPKIITITIPLGEEVRNPDGEPMTPEDIADNFQERFGNIEVEKSPNGWLEVTFWLSAGGSA [r15_645_TrROS] | 1.18 ± 0.19 kcal/mol
20 | SAGGSAMPVVELPIGPELYEKIKEAAEAGDPDKVITLPLKLPNGEEVTLVVEADPATPEFRARVELSAGGSA [r15_700_TrMRF] | 0.105 ± 0.096 kcal/mol
21 | SAGGSAEELLKKLKIVEVKEVDGKLYIEIEVDEPGLTVEEIKEILKELNLDVPIEVKEVVVVEEKESAGGSA [r15_599_TrROS_Hall] | 1.98 ± 0.11 kcal/mol
22 | SAGGSAGGMKTFTIDELKKLAEELGAEIYYDKDTNTIYIRTPGKIFRITINDDGTVTIEELPPKSAGGSAGG [r6_155_TrROS_Hall] | 3.66 ± 0.25 kcal/mol
23 | SAGGSAGGSKPVLVKVERKEVEVPLPDGTPGKVFVVKVTVLGENEPLAEKTYLFASEEEAKESSAGGSAGGS [r12_461_TrMRF] | 0.595 ± 0.13 kcal/mol
24 | SAGGSAGGSAKKVVTVPEDATLEEIEELLKSGEKVTVVIHNKETGKTETLEFDSLEELKAASAGGSAGGSAG [r3_362_TrROS_Hall] | 1.53 ± 0.17 kcal/mol
25 | SAGGSAGGKKVYPIPGATPNQFRELLDENKGTLKIYMPNGKQEEFPIKPGMEPIPGGPAWIERKSAGGSAGG [r6_304_TrROS] | -0.871 ± 0.36 kcal/mol
26 | SAGGSKTVTLTVTVEVNGKTFTVTVTLTYDEETNKLTITVEISAKSEEERERARELVEKLLKELLSSAGGSA [r2_259_TrROS_Hall] | 4.79 ± 0.13 kcal/mol
27 | SAGGSAGGSAGGSMITIEVTTPTEKHTIEVPEDEVPEEELIERAKKLFPDVEKITILKESAGGSAGGSAGGS [r4_235_JUSTAS] | 0.636 ± 0.08 kcal/mol
28 | SAGGMPEGMVVLRIRVRVEKVEVRRDPAVPGRVSRRVEVREVEIELVVDSREALEALRELGFEIEEVSAGGS [r8_482_TrROS_Hall] | 4.22 ± 0.08 kcal/mol
29 | SAGGSRTVLLYDPDNPRPYIVEYDPATGTLRIYDPETGELVAEFPIPDLKDIEAPVVPNGILLGAIVDSAGG [r13_720_TrMRF] | 1.68 ± 0.075 kcal/mol
30 | SAGQPGKPIRKYTFDLPDDDKITVEVYMYPDGNMMIKIEDNNGKERNIMIPANDLQNMPIEDLVKWLRSAGG [r19_47_TrROS] | 3.33 ± 0.36 kcal/mol
31 | SAGGSAAGAERVTYNYMIPNDGKWFMIRITIYRFEVKRDPEDNKYKLDLPPGDQLFINTEIMWFPNSAGGSA [r15_1040_TrROS] | 3.73 ± 0.24 kcal/mol
32 | SAGGIIEIDPNGWVIRIEMYPPDGKPPKHTIPFPNATPEELIDELKDWADQLPNPGHKVKIDEITPMPSAGG [r13_29_TrROS] | 0.177 ± 0.086 kcal/mol

Source: the supplement of paper PMC12764529
